In the DeepSol protein solubility set:

Assay: soluble on expression in E. coli; label from the status in PepcDB or PDB records

Row | Sequence | soluble on expression in E. coli
1 | MGSSHHHHHHSSGLVPRGSHMATADPYDALRRRWLGITLGTGYDPAAEPYASRLAETGERAREHRATMAPTPTSLWPGHPFDPPAGITFAYGRLWTMTEAYVQEGTGATGDPALLADILRGLDHLSATVYHPATTRYGNWWEWQIGSPRLLMDITAALYDHLGADRVAAACAAVDHFVPDAMLGAYTGTSTGANRVDLCRSVALRGVLGRAPAKIALARDALSPVFPYVTKGDGLYADGSFVQHTWVAYSGTYGQVMLDGLGRLFTLLAGSEWEVTDPGRQLVLDSVEHAYAPLIHDGLVMDTVNGRAISRGYLKSDDLHVMRSDHFHGQQLIAAMAVLAGGASNAERERWHARIKGWIERDTVTPVLTAPQFPVADLTRLHAIADAPGEAAPEPVGHHLFAAMDRAVHRRPAFTAGLAMASDRIAHYECGNGENPRGWHTGAGMLTWWANGTRADQYTDWFWPTVDWYRLPGTTVSTKRLADRAGGEWGAPKPDVRWVGGATDGEYAAVGQHLKGLGSTLEARKSWFFLDDAVVCLGAGITCADGVPVETVVDNRNLGEGGTQALVRGRHWAHLEGHGGWIVPGGALRTLREDRTGAWSDINTTSTTERRTRRWQTLWLDHGTDPAGADYVYTVMPGASRAALARRAADRHWLTVLANDDRRQAVSVPSLGLTAANFWQAGTAGPLTTTAGASVLVRRRGRTATLRVSEPPRTGEALEIVWDHPVGAVLRADETVEILATGRRLHLRVTPGVVCTTHECEVTLS | soluble
2 | GRMENEESDVKPPDWPNPMNATSQFPQPQHFDSFGLRLPRDITELPEWSEGYPFYMAMGFPGYDLSADDIAGKFQFSRGMRRSYDAGFKLMVVEYAESTNNCQAAKQFGVLEKNVRDWRKVKPQLQNAHAMRRAFRGPKNGRFALVDQRVAEYVRYMQAKGDPITREAMQLKALEIAQEMNIPEKGFKASLGWCRRMMRRYDLSLRHKVPVPQHLPEDLTEKLVTYQRSVLALRRAHDYEVAQMGNADETPICLEVPSRVTVDNQGEKPVLVKTPGREKLKITAMLGVLADGRKLPPYIILRGTYIPPGKFPSGMEIRCHRYGWMTEDLMQDWLEVVWRRRTGAVPKQRGMLILNGFRGHATDSVKNSMESMNTDMVIIPGGLTSQLQVLDVVVYKPLNDSVRAQYSNWLLAGNLALSPTGNAKKPPLGLFLEWVMVAWNSISSESIVQGFKKCHISSNLEEEDDVLWEIESELPGGGEPPKDCDTESMAESN | soluble
3 | MPQINTVPGPHLRRQVWLRTKSGQRLAYAVSWWDASHVDEYLQNRSLPIWDSLSRLHTELYRDIQAIYCGHNRTLAKAFGQEGPFWGRHYLFWHDRKPLTLIYEIFSPYLSRYLGELPRPKFELEHHHHHH | not soluble
4 | MSLNLTTTVLSLQLEQPFVSNKGSTTTVHQVVIKLTWQEYGGFGTVLCPKETQLSVEQIQQLIQACEPLLSTATPWQFELYQGQLASVVRNQAAMMAGIDMAWHDLLGKVVAQPIHALWGLAGLSIPPTALSLGAQSEQALVAQAAKLAAWPILKLKLTTDSNLDSLRQLREVYAGRIWVDGNGAWDVDQAIAAAQQCHTYGVELIEQPIPAGNLDQLRTIRQHSPIPIVADEDCRGLADVLRLHTCVDVINLKLFKCGGLRQARTMIDVAKQFGLKVMLGCKTESSLGISAIAQLAGLADYLDLDGHLDLVNDPFQGLVIEQGTLRLPQTPGLGLTIQGAIEEGHHHHHH | not soluble
5 | MSLPMLQVALDNQTMDSAYETTRLIAEEVDIIEVGTILCVGEGVRAVRDLKALYPHKIVLADAKIADAGKILSRMCFEANADWVTVICCADINTAKGALDVAKEFNGDVQIELTGYWTWEQAQQWRDAGIGQVVYARSRDAQAAGVAWGEADITAIKRLSDMGFKVTVTGGLALEDLPLFKGIPIHVFIAGRSIRDAASPVEAARQFKRSIAELWG | soluble
6 | MNANCSSTAAVICEKKLHRPYSKHCPKHWVYNKETQACYRTISKTNMTILEADNKCFDYGFEHRQDAMLTSIESESENQFVMNLAKEKDANFEFIYLGGYGRSRNGNKWHWMDGSEFNYMNWDRGMPFGRRALAVLVMNKRGKWINHYADKILSQYNAVAVCKFKS | not soluble
7 | MEHKKSTDSRSCSQLSTSMDNIQRNLMLLEIEKNEKSSFDDVITGAESDNGWEDCLRETESVQSQWITEQSTIAYPETTRVNCDGPQSYYELADLNYKPAENTVRLARVPSQYQLDALSEIFVFDVPQHIAVKKVEASFLPKYVNTSSEVAQNSVNTTPYFVNSEYVSEMLCNEYSETY | not soluble
8 | MGHHHHHHSHMLSHFETNSALLEQLSELQGSTEPFLTEHPHMAAEHTVNWLTIAALSSAIDKNEEKLAALSEKCVVFQLFLASATGQKQFFKKFEVSENLDEVKAFKSRMRSRAQAKGEKPEKINLNQGTVDSRQFLEELKQLENLKKVRFIGKFVRKLILIVKFKFYE | not soluble
9 | MLSANRDCAFGRVHDFAGIRNAGDFRDKVPMHTYAQLQPWIERAQHESGAVLTTRPPLFFERSSGNSALQKLIPYTPEFLAQLQGSLTVWLADMYRQVPEISHGSGYWSMSPPLQQPAVSANGIPVGSVSDLQYLQGSAIAGLAGTLLIPDLAHDVVHWRRQTLLALVADADLSFISVWSPTFLTSLLQPLFDTERQTCAWLEAMLPASRKLALRHARAQGVFTELWPRLAAVSCWMDGPSHGYAVQLAALFPQARWLPKGLFATEGVVSVPFGEGQGCPLAIGSHYLEFVGDDGLPRGARSLRMGETAQVLLTTGAGLYRYVLGDRVRMVGNHAGTPRVAFVGRSASACDLVGEKLDEQLVEGVLAQCIDSADSACLIPDSRNTPPHYVALVSTSAVTPGQVLANSIETVLQGSFHYAHARTLGQLGPLRVRFVSGGAQTLAALLQRAAEATGVRAGDVKPRALISRLDTANALLAITEEFECPHL | not soluble
10 | MDKNLLEAVKFDEKGLVCAIAQDAETKRILMVAWMNAEALQKTVETGFAHYYSRSRQKQWMKGEESGHTQKVRALRLDCDGDAIVMLIAQNGGIACHTGRESCFYKVWRGSAWETADAVLKDEKEIYGSTH | not soluble
11 | MAFIGRDDDLKQLQECFTERRAQLVFVYGRRRVGKTETLIQLAKDKETLFFAAQNATKDEQLASFSRLMFEAGAPGKDYLSQYPSWERALTELTRLPEPSDGGRRLVIFDEFPYLVKSDPSLPSVLQNLWDHTLRHANLMIVICGSAMSFIEKELLGEKSPLYGRATGILKMLPMPYWDAAQFFPNYSGEDKALAYAILGGIPRYLEEFDPDETIDANVKRHILRRIAPLYSEVEFLLHEELRETAKYNSVIRAIALGATSLNEIATHTMMANATVSSYLANLMELGIVEREFPVTAKPKERAKGSRGLYQLSDNFFRFWYSFVFPYRSELERGDVEGVYERHIKPVLHDFAGKPFEGLCREWMWRESAAGRLPFRARAVGRWWDRQDEIDVMAVDNASDAAIVGECKFRNAPVDRSVLNLLRDRAARTGIGQRTYLLFSLGGFDQSLVDDAAASQSDVQLVGIDELFHELEHHHHHH | not soluble
12 | MTVDSPILTDTLVVGGGQAGIAMSEHLTGQGVPHIVLERDRIAQRWRTGRWDSLVANGPAWHDRFPGLEFEGLDPDGFASKDAVADYLEAYARKFNAPIRTGVEVVRAERNGGRYGFTVETSAGTYEAQRIVVATGPFQRPVIPAIAPRDPALTQIHSADYRNPGQLPEGAVLVIGAGSSGVQIADELQRAGREVYLSVGPHDRPPRRYRGRDFCWWLGVLGLWDQETVQPGREHVTIAVSGTDGGRTIEFRALAHQGITLVGVTKSFRDGVVAFENDLAENVARGDANHFALLDAADAYIARNGLSLPDEPQARRVPPDPACMTEPILQLDLAAANVTSIIWATGYAAEYGWLNVDAFDANGKPRHQRGVSSEPGVYFLGLPWLSRRGSAFLWGVWHDAKHIAGHIAMQRNYLSYPDFGQSQQLEHHHHHH | soluble
13 | HMTDLKASSLRALKLMDLTTLNDDDTDEKVIALCHQAKTPVGNTAAICIYPRFIPIARKTLKEQGTPEIRIATVTNFPHGNDDIDIALAETRAAIAYGADEVDVVFPYRALMAGNEQVGFDLVKACKEACAAANVLLKVIIETGELKDEALIRKASEISIKAGADFIKTSTGKVAVNATPESARIMMEVIRDMGVEKTVGFKPAGGVRTAEDAQKYLAIADELFGADWADARHYRFGASSLLASLLKALGHGDGKSASSY | soluble
14 | MGSDKIHHHHHHHLKTQAISFVIHFAHRPVKRYDSPLSFLCSRRVQKIKIMLRATSLFITLGLSHSAWALVPPDYQEPPSDFSAEIEAGLQINTGNTESSSFNGRTKLVYDTDKFRQEGVFKAYFASDSEKTTSEKYDVQLQSSYKIYSGYIFARGDFTEDRFGSYTRISTVSTGYGFDAISGDSTKLSLEVGPGYRYNLPQVSESVPDPEADREIILRTAAKFEQKIHEYTSFNADLTAETGEANNTVTLDMSYKNTLFQDWAFKIGMNIKYTEVVPEGSKQTDTVTTFNLLYTFK | not soluble
15 | MVLVLDFGSQYTRLIARRLRELRAFSLILPGDAPLEEVLKHRPQALILSGGPRSVFDPDAPRPDPRLFSSGLPLLGICYGMQLLAQELGGRVERAGRAEYGKALLTRHEGPLFRGLEGEVQVWMSHQDAVTAPPPGWRVVAETEENPVAAIASPDGRAYGVQFHPEVAHTPKGMQILENFLELAGVKRDWTPEHVLEELLREVRERAGKDRVLLAVSGGVDSSTLALLLAKAGVDHLAVFVDHGLLRLGEREEVEGALRALGVNLLVVDAKERFLKALKGVEDPEEKRKIIGREFVAAFSQVARERGPFRFLAQGTLYPDVIESAGGHGAAKIKSHHNVGGLPEDLEFELLEPFRLLFKDEVRELALLLGLPDTLRLRHPFPGPGLAVRVLGEVTEERLEILRRADDIFTSLLRERGLYEKVAQALAVLTPVRSVGVAGDERKYGYVLALRAVTTEDFMTADWARLPLEFLDEAARRITRRVPEIGRVVYDLTSKPPATIEWE | soluble
16 | MGSDKIHHHHHHMCVEGLTSSGSVNWHDAWLTLSDGVKLVARLWIPKGEGPWPALVMRQPYGRALASTVTYIHPGWWASHGYLVVVQDVRGQGDSEGHFNGFLQEASDTSQTHAWVRELPECNGRLGTYGFSYQGLTQLLAEPGTPPPDCLAPAMAGVDERNHWSCEGGAHWWHLGLAWGLQLAALQARRCGNWEAWRELRRSLEDDSYLYEGPALLKRHDPDGMSFRWLHQANQNDHGWVVHKPLDSWLRQPMLLLGGWWDPHLNGLLDLYQRSSQVGGSPELHIGPATHLQWWPDAQQLQLEFFDRHLKSSKALTNSRPHGRIWNITSCSWQTFASPTQTTTSANASWSLVSGGMACLDPSEGTLHQNKKGGGVVYVVHDPWRPVQSVGGHLSPKPGVAERSALDQRADVATFTSTALQEPLQLNGIPLLQLTVQSDQPGFDLCVALSIVNCNHSEVKQLSTGFLRVQGEQALRMLPRKVKLQPILADLERGEHLRLSLAGAAWPAIGVNPGHDRHPCGPPGPHCQVVTMTLQLNGSKLRFLSWNSGKIDFDLPQEF | not soluble
17 | GMGSYQLLVPPPEALSKPLSVPTRLLLGPGPSNLAPRVLAAGSLRMIGHMQKEMLQIMEEIKQGIQYVFQTRNPLTLVVSGSGHCAMETALFNLLEPGDSFLTGTNGIWGMRAAEIADRIGARVHQMIKKPGEHYTLQEVEEGLAQHKPVLLFLVHGESSTGVVQPLDGFGELCHRYQCLLLVDSVASLGGVPIYMDQQGIDIMYSSSQKVLNAPPGISLISFNDKAKYKVYSRKTKPVSFYTDITYLAKLWGCEGETRVIHHTTPVTSLYCLRESLALIAEQGLENCWRRHREATAHLHKHLQEMGLKFFVKDPEIRLPTITTVTVPAGYNWRDIVSYVLDHFSIEISGGLGPTEERVLRIGLLGYNATTENVDRVAEALREALQHCPKNKL | soluble
18 | GAVFEFDNLAPMLATHGTVAGLKASQWAFEGKWDGYRLLVEADHGAVRLRSRSGRDVTAEYPQLRALAEDLADHHVVLDGEAVVLDSSGVPSFSQMQNRGRDTRVEFWAFDLLYLDGRALLGTRYQDRRKLLETLANATSLTVPELLPGDGAQAFACSRKHGWEGVIAKRRDSRYQPGRRCASWVKDKHWNTQEVVIGGWRAGEGGRSSGVGSLLMGIPGPGGLQFAGRVGTGLSERELANLKEMLAPLHTDESPFDVPLPARDAKGITYVKPALVAEVRYSEWTPEGRLRQSSWRGLRPDKKPSEVVRE | soluble
